The values below come from paper PMC11250262, “Understanding the genetic complexity of puberty timing across the allele frequency spectrum” (Nature Genetics, 2024).

The experiment concerns the target MC3R-RlucII (human, UniProt P41968 1-323). The experiment is described as follows: cell-based or functional assay.

Sequence of MC3R-RlucII (P41968 whole entry): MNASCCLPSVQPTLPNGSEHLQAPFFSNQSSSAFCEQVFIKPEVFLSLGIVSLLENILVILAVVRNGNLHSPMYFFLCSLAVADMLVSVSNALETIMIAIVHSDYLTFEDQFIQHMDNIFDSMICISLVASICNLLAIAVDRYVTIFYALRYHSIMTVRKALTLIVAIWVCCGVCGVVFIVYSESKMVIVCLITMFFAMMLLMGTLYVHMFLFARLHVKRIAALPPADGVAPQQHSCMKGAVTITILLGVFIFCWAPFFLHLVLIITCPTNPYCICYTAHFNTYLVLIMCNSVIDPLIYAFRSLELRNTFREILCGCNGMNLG

B1: GPR83-Venus (receptor, human, UniProt Q9NYM4-1 17-423, looked up)
chain: TEPHEGRADEQSAEAALAVPNASHFFSWNNYTFSDWQNFVGRRRYGAESQNPTVKALLIVAYSFIIVFSLFGNVLVCHVIFKNQRMHSATSLFIVNLAVADIMITLLNTPFTLVRFVNSTWIFGKGMCHVSRFAQYCSLHVSALTLTAIAVDRHQVIMHPLKPRISITKGVIYIAVIWTMATFFSLPHAICQKLFTFKYSEDIVRSLCLPDFPEPADLFWKYLDLATFILLYILPLLIISVAYARVAKKLWLCNMIGDVTTEQYFALRRKKKKTIKMLMLVVVLFALCWFPLNCYVLLLSSKVIRTNNALYFAFHWFAMSSTCYNPFIYCWLNENFRIELKALLSMCQRPPKPQEDRPPSPVPSFRVAWTEKNDGQRAPLANNLLPTSQLQSGKTDLSSVEPIVTMS
With B1, the “NDP-αMSH-stimulated cAMP production (GloSensor, area under the curve) in HEK293 cells cotransfected with GPR83 and MC3R (1:1 ratio), against MC3R alone” value turned out to be 43%.
